# Results as given in publication PMC5472775.
# Legend:
# [1] = molecular target: CENP-C-CD R521A R521A (Homo sapiens) (UniProt Q03188); assay: EMSA; settings: apparent Kd; 200 nM nucleosome; EMSA: 200 nM nucleosomes, 20 mM Tris-Cl pH 7.5, 1 mM EDTA, 1 mM DTT, on ice 1 h, 5% native PAGE; footprinting at room temperature, 5 min
# [2] = molecular target: CENP-C-CD R522A R522A (Homo sapiens) (UniProt Q03188); assay: EMSA; settings: apparent Kd; 200 nM nucleosome; EMSA: 200 nM nucleosomes, 20 mM Tris-Cl pH 7.5, 1 mM EDTA, 1 mM DTT, on ice 1 h, 5% native PAGE; footprinting at room temperature, 5 min
sequence,measurement,setting,value
"ATCAAATATCCACCTGCAGATTCTACCAAAAGTGTATTTGGAAACTGCTCCATCAAAAGGCATGTTCAGCTCTGTGAGTGAAACTCCATCATCACAAAGAATATTCTGAGAATGCTTCCGTTTGCCTTTTATATGAACTTCCTCGAT (double strand) [CENP-A NCP, Cy5-H2B, 147 bp DNA]",Kd,[1],267 nM
same,Kd,[2],655 nM
